B1: Variant A2M, bait region SEQ ID NO 128 (other)
chain: SVSGKPQYMVLVPSLLHTETTEKGCVLLSYLNETVTVSASLESVRGNRSLFTDLEAENDVLHCVAFAVPKSSSNEEVMFLTVQVKGPTQEFKKRTTVMVKNEDSLVFVQTDKSIYKPGQTVKFRVVSMDENFHPLNELIPLVYIQDPKGNRIAQWQSFQLEGGLKQFSFPLSSEPFQGSYKVVVQKKSGGRTEHPFTVEEFVLPKFEVQVTVPKIITILEEEMNVSVCGLYTYGKPVPGHVTVSICRKYSDASDCHGEDSQAFCEKFSGQLNSHGCFYQQVKTKVFQLKRKEYEMKLHTEAQIQEEGTVVELTGRQSSEITRTITKLSFVKVDSHFRQGIPFFGQVRLVDGKGVPIPNKVIFIRGNEANYYSNATTDEHGLVQFSINTTNVMGTSLTVRVNYKDRSPCYGYQWVSEEHEEAHHTAYLVFSPSKSFVHLEPMSHELPCGHTQTVQAHYILNGGTLLGLKKLSFYYLIMAKGGIVRTGTHGLLVKQEDMKGHFSISIPVKSDIAPVARLLIYAVLPTGDVIGDSAKYDVENCLANKVDLSFSPSQSLPASHAHLRVTAAPQSVCALRAVDQSVLLMKPDAELSASSVYNLLPEKDLTGFPGPLNDQDDEDCINRHNVYINGITYTPVSSTNEKDMYSFLEDMGLKAFTNSKIRKPKMCPQLEQYEMHGPSELEGRGSEAIPMSIPTKEEEGLGSIPENFFGVVEEPHTKLRKYFPETWIWDLVVVNSAGVAEVGVTVPDTITEWKAGAFCLSEDAGLGISSTASLRAFQPFFVELTMPYSVIRGEAFTLKATVLNYLPKCIRVSVQLEASPAFLAVPVEKEQAPHCICANGRQTVSWAVTPKSLGNVNFTVSAEALESQELCGTEVPSVPEHGRKDTVIKPLLVEPEGLEKETTFNSLLCPSGGEVSEELSLKLPPNVVEESARASVSVLGDILGSAMQNTQNLLQMPYGCGEQNMVLFAPNIYVLDYLNETQQLTPEIKSKAIGYLNTGYQRQLNYKHYDGSYSTFGERYGRNQGNTWLTAFVLKTFAQARAYIFIDEAHITQALIWLSQRQKDNGCFRSSGSLLNNAIKGGVEDEVTLSAYITIALLEIPLTVTHPVVRNALFCLESAWKTAQEGDHGSHVYTKALLAYAFALAGNQDKRKEVLKSLNEEAVKKDNSVHWERPQKPKAPVGHFYEPQAPSAEVEMTSYVLLAYLTAQPAPTSEDLTSATNIVKWITKQQNAQGGFSSTQDTVVALHALSKYGAATFTRTGKAAQVTIQSSGTFSSKFQVDNNNRLLLQQVSLPELPGEYSMKVTGEGCVYLQTSLKYNILPEKEEFPFALGVQTLPQTCDEPKAHTSFQISLSVSYTGSRSASNMAIVDVKMVSGFIPLKPTVKMLERSNHVSRTEVSSNHVLIYLDKVSNQTLSLFFTVLQDVPVRDLKPAIVKVYDYYETDEFAIAEYNAPCSKDLGNADYKDDDDKGASHHHHHH
B2: Variant A2M, bait region SEQ ID NO 134 (other)
chain: SVSGKPQYMVLVPSLLHTETTEKGCVLLSYLNETVTVSASLESVRGNRSLFTDLEAENDVLHCVAFAVPKSSSNEEVMFLTVQVKGPTQEFKKRTTVMVKNEDSLVFVQTDKSIYKPGQTVKFRVVSMDENFHPLNELIPLVYIQDPKGNRIAQWQSFQLEGGLKQFSFPLSSEPFQGSYKVVVQKKSGGRTEHPFTVEEFVLPKFEVQVTVPKIITILEEEMNVSVCGLYTYGKPVPGHVTVSICRKYSDASDCHGEDSQAFCEKFSGQLNSHGCFYQQVKTKVFQLKRKEYEMKLHTEAQIQEEGTVVELTGRQSSEITRTITKLSFVKVDSHFRQGIPFFGQVRLVDGKGVPIPNKVIFIRGNEANYYSNATTDEHGLVQFSINTTNVMGTSLTVRVNYKDRSPCYGYQWVSEEHEEAHHTAYLVFSPSKSFVHLEPMSHELPCGHTQTVQAHYILNGGTLLGLKKLSFYYLIMAKGGIVRTGTHGLLVKQEDMKGHFSISIPVKSDIAPVARLLIYAVLPTGDVIGDSAKYDVENCLANKVDLSFSPSQSLPASHAHLRVTAAPQSVCALRAVDQSVLLMKPDAELSASSVYNLLPEKDLTGFPGPLNDQDDEDCINRHNVYINGITYTPVSSTNEKDMYSFLEDMGLKAFTNSKIRKPKMCPQLEQYEMHGPSELEGRGSIPENFFGVKEEEGLGSSEDLVVQIVEEPHTKLRKYFPETWIWDLVVVNSAGVAEVGVTVPDTITEWKAGAFCLSEDAGLGISSTASLRAFQPFFVELTMPYSVIRGEAFTLKATVLNYLPKCIRVSVQLEASPAFLAVPVEKEQAPHCICANGRQTVSWAVTPKSLGNVNFTVSAEALESQELCGTEVPSVPEHGRKDTVIKPLLVEPEGLEKETTFNSLLCPSGGEVSEELSLKLPPNVVEESARASVSVLGDILGSAMQNTQNLLQMPYGCGEQNMVLFAPNIYVLDYLNETQQLTPEIKSKAIGYLNTGYQRQLNYKHYDGSYSTFGERYGRNQGNTWLTAFVLKTFAQARAYIFIDEAHITQALIWLSQRQKDNGCFRSSGSLLNNAIKGGVEDEVTLSAYITIALLEIPLTVTHPVVRNALFCLESAWKTAQEGDHGSHVYTKALLAYAFALAGNQDKRKEVLKSLNEEAVKKDNSVHWERPQKPKAPVGHFYEPQAPSAEVEMTSYVLLAYLTAQPAPTSEDLTSATNIVKWITKQQNAQGGFSSTQDTVVALHALSKYGAATFTRTGKAAQVTIQSSGTFSSKFQVDNNNRLLLQQVSLPELPGEYSMKVTGEGCVYLQTSLKYNILPEKEEFPFALGVQTLPQTCDEPKAHTSFQISLSVSYTGSRSASNMAIVDVKMVSGFIPLKPTVKMLERSNHVSRTEVSSNHVLIYLDKVSNQTLSLFFTVLQDVPVRDLKPAIVKVYDYYETDEFAIAEYNAPCSKDLGNADYKDDDDKGASHHHHHH

How the values were obtained:
Test in all cases: cell-based or functional assay
MMP1 = target: T1, MMP1 (human, UniProt P03956 100-469, limits assumed)
T1 sequence (looked up): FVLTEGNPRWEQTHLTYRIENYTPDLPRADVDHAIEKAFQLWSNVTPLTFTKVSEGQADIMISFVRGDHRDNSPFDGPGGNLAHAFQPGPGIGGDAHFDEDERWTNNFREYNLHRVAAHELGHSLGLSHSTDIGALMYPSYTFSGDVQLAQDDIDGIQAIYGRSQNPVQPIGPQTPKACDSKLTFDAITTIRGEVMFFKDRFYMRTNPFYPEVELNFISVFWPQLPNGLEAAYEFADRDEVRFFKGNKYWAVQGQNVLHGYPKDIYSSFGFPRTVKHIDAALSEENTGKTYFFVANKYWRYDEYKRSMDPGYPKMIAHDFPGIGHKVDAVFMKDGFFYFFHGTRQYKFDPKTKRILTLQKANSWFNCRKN

MMP2 = target: T2, MMP2 (human, UniProt P08253 110-660, limits assumed)
T2 sequence (looked up): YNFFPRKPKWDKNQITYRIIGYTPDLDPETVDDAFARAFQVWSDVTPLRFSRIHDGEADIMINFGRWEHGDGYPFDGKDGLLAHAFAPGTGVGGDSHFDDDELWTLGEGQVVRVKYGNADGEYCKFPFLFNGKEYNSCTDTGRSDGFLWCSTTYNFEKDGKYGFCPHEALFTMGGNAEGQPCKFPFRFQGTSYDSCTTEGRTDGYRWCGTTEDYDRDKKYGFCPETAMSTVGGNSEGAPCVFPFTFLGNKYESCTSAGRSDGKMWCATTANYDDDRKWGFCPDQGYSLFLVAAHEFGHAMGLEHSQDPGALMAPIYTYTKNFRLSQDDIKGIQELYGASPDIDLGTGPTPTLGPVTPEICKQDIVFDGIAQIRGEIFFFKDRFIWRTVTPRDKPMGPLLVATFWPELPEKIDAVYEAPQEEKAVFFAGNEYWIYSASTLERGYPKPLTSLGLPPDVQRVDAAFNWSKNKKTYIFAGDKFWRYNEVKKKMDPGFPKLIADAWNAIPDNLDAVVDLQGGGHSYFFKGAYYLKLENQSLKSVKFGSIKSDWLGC

Elastase = target: Elastase
Cathepsin G = target: T3, Cathepsin G (UniProt P08311 21-244)
T3 sequence (looked up): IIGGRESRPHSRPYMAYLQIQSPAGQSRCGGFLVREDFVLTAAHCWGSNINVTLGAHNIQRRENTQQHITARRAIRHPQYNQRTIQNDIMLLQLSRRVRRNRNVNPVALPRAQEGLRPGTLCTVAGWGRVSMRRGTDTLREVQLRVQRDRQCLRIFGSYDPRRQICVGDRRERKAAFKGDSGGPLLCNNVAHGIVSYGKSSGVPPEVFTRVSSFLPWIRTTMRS

MMP8 = MMP8 (human, UniProt P22894 101-467, limits assumed)
Sequence of MMP8 (P22894 101-467 limits assumed): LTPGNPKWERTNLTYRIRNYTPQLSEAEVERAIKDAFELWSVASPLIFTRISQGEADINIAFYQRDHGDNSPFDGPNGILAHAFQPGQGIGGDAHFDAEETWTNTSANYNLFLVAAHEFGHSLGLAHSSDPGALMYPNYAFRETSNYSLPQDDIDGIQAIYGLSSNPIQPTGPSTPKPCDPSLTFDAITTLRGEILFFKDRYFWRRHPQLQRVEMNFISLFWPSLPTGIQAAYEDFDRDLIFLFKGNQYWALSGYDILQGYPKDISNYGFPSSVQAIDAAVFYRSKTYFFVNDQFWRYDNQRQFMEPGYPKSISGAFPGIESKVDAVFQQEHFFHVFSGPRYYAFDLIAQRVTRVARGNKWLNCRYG

Row | Binder | Protease Inhibition (% of WT) (MMP1) | Protease Inhibition (% of WT) (MMP2) | Protease Inhibition (% of WT) (Elastase) | Protease Inhibition (% of WT) (Cathepsin G) | Protease Inhibition (% of WT) (MMP8)
1 | B1 | 400 % of WT | 20 % of WT | 100 % of WT | 225 % of WT | –
2 | B2 | 200 % of WT | – | 300 % of WT | 250 % of WT | 200 % of WT

Reference: patent publication US20230250154A1 (CYTONICS, published 2023)
